{"source": "patent EP3821250B1", "key": {"[1]": {"target": "anti-A2M antibody (MAB) labeled with a donor fluorophore", "assay": "TR-FRET competition against acceptor-labeled A2M; A2M calibrator 4000 ug/mL; mean of 4 replicates (FIG. 2G)"}, "[2]": {"target": "anti-A2M antibody (MAB) labeled with a donor fluorophore", "assay": "TR-FRET competition against acceptor-labeled A2M in whole blood, singleplex calibrators, 30 min; A2M 200 ug/mL (FIG. 2I)"}, "[3]": {"target": "anti-A2M antibody (MAB) labeled with a donor fluorophore", "assay": "TR-FRET competition against acceptor-labeled A2M in whole blood, singleplex calibrators, 30 min; A2M 500 ug/mL (FIG. 2I)"}, "[4]": {"target": "anti-A2M antibody (MAB) labeled with a donor fluorophore", "assay": "TR-FRET competition against acceptor-labeled A2M in whole blood, singleplex calibrators, 5 min; A2M 4000 ug/mL (FIG. 2I)"}, "[5]": {"target": "anti-A2M antibody (MAB) labeled with a donor fluorophore", "assay": "TR-FRET competition against acceptor-labeled A2M in whole blood, multiplex calibrators (VCAM-1 + A2M), 5 min; A2M 200 ug/mL (FIG. 2I)"}, "[6]": {"target": "anti-A2M antibody (MAB) labeled with a donor fluorophore", "assay": "TR-FRET competition against acceptor-labeled A2M in whole blood, multiplex calibrators (VCAM-1 + A2M), 5 min; A2M 1000 ug/mL (FIG. 2I)"}, "[7]": {"target": "anti-A2M antibody (MAB) labeled with a donor fluorophore", "assay": "TR-FRET competition against acceptor-labeled A2M in whole blood, multiplex calibrators, 30 min; A2M 0 ug/mL, reference (FIG. 2I)"}, "[8]": {"target": "anti-A2M antibody (MAB) labeled with a donor fluorophore", "assay": "TR-FRET competition against acceptor-labeled A2M in whole blood, multiplex calibrators (VCAM-1 + A2M), 5 min; A2M 2000 ug/mL (FIG. 2I)"}, "[9]": {"target": "anti-A2M antibody (MAB) labeled with a donor fluorophore", "assay": "TR-FRET competition against acceptor-labeled A2M; A2M calibrator 1000 ug/mL; mean of 4 replicates (FIG. 2G)"}, "[10]": {"target": "anti-A2M antibody (MAB) labeled with a donor fluorophore", "assay": "TR-FRET competition against acceptor-labeled A2M in whole blood, multiplex calibrators, 5 min; A2M 0 ug/mL, reference (FIG. 2I)"}, "[11]": {"target": "anti-A2M antibody (MAB) labeled with a donor fluorophore", "assay": "TR-FRET competition against acceptor-labeled A2M in whole blood, multiplex calibrators (VCAM-1 + A2M), 5 min; A2M 4000 ug/mL (FIG. 2I)"}, "[12]": {"target": "anti-A2M antibody (MAB) labeled with a donor fluorophore", "assay": "TR-FRET competition against acceptor-labeled A2M in whole blood, multiplex calibrators (VCAM-1 + A2M), 30 min; A2M 500 ug/mL (FIG. 2I)"}, "[13]": {"target": "anti-A2M antibody (MAB) labeled with a donor fluorophore", "assay": "TR-FRET competition against acceptor-labeled A2M in whole blood, singleplex calibrators, 5 min; A2M 1000 ug/mL (FIG. 2I)"}, "[14]": {"target": "anti-A2M antibody (MAB) labeled with a donor fluorophore", "assay": "TR-FRET competition against acceptor-labeled A2M in whole blood, singleplex calibrators, 5 min; A2M 0 ug/mL, reference (FIG. 2I)"}, "[15]": {"target": "anti-A2M antibody (MAB) labeled with a donor fluorophore", "assay": "TR-FRET competition against acceptor-labeled A2M in whole blood, singleplex calibrators, 5 min; A2M 200 ug/mL (FIG. 2I)"}, "[16]": {"target": "anti-A2M antibody (MAB) labeled with a donor fluorophore", "assay": "TR-FRET competition against acceptor-labeled A2M in whole blood, multiplex calibrators (VCAM-1 + A2M), 30 min; A2M 2000 ug/mL (FIG. 2I)"}, "[17]": {"target": "anti-A2M antibody (MAB) labeled with a donor fluorophore", "assay": "TR-FRET competition against acceptor-labeled A2M in whole blood, singleplex calibrators, 30 min; A2M 1000 ug/mL (FIG. 2I)"}, "[18]": {"target": "anti-A2M antibody (MAB) labeled with a donor fluorophore", "assay": "TR-FRET competition against acceptor-labeled A2M in whole blood, singleplex calibrators, 5 min; A2M 2000 ug/mL (FIG. 2I)"}, "[19]": {"target": "anti-A2M antibody (MAB) labeled with a donor fluorophore", "assay": "TR-FRET competition against acceptor-labeled A2M in whole blood, singleplex calibrators, 5 min; A2M 500 ug/mL (FIG. 2I)"}, "[20]": {"target": "anti-A2M antibody (MAB) labeled with a donor fluorophore", "assay": "TR-FRET competition against acceptor-labeled A2M; A2M calibrator 200 ug/mL; mean of 4 replicates (FIG. 2G)"}, "[21]": {"target": "anti-A2M antibody (MAB) labeled with a donor fluorophore", "assay": "TR-FRET competition against acceptor-labeled A2M in whole blood, multiplex calibrators (VCAM-1 + A2M), 30 min; A2M 200 ug/mL (FIG. 2I)"}, "[22]": {"target": "anti-A2M antibody (MAB) labeled with a donor fluorophore", "assay": "TR-FRET competition against acceptor-labeled A2M in whole blood, singleplex calibrators, 30 min; A2M 2000 ug/mL (FIG. 2I)"}, "[23]": {"target": "anti-A2M antibody (MAB) labeled with a donor fluorophore", "assay": "TR-FRET competition against acceptor-labeled A2M in whole blood, multiplex calibrators (VCAM-1 + A2M), 30 min; A2M 4000 ug/mL (FIG. 2I)"}, "[24]": {"target": "anti-A2M antibody (MAB) labeled with a donor fluorophore", "assay": "TR-FRET competition against acceptor-labeled A2M in whole blood, singleplex calibrators, 30 min; A2M 4000 ug/mL (FIG. 2I)"}, "[25]": {"target": "anti-A2M antibody (MAB) labeled with a donor fluorophore", "assay": "TR-FRET competition against acceptor-labeled A2M in whole blood, multiplex calibrators (VCAM-1 + A2M), 5 min; A2M 500 ug/mL (FIG. 2I)"}, "[26]": {"target": "anti-A2M antibody (MAB) labeled with a donor fluorophore", "assay": "TR-FRET competition against acceptor-labeled A2M in whole blood, multiplex calibrators (VCAM-1 + A2M), 30 min; A2M 1000 ug/mL (FIG. 2I)"}, "[27]": {"target": "anti-A2M antibody (MAB) labeled with a donor fluorophore", "assay": "TR-FRET competition against acceptor-labeled A2M; A2M calibrator 500 ug/mL; mean of 4 replicates (FIG. 2G)"}, "[28]": {"target": "anti-A2M antibody (MAB) labeled with a donor fluorophore", "assay": "TR-FRET competition against acceptor-labeled A2M in whole blood, singleplex calibrators, 30 min; A2M 0 ug/mL, reference (FIG. 2I)"}, "[29]": {"target": "anti-A2M antibody (MAB) labeled with a donor fluorophore", "assay": "TR-FRET competition against acceptor-labeled A2M; A2M calibrator 0 ug/mL, reference; mean of 4 replicates (FIG. 2G)"}, "[30]": {"target": "anti-A2M antibody (MAB) labeled with a donor fluorophore", "assay": "TR-FRET competition against acceptor-labeled A2M; A2M calibrator 2000 ug/mL; mean of 4 replicates (FIG. 2G)"}}, "data": [{"substance": "A2M (alpha-2-macroglobulin), unlabeled analyte / calibrator", "values": [{"measurement": "F/B Mean", "setting": "[1]", "result": 0.393}, {"measurement": "FRET signal relative to zero calibrator (quantity not given)", "setting": "[2]", "result": 0.88}, {"measurement": "FRET signal relative to zero calibrator (quantity not given)", "setting": "[3]", "result": 0.71}, {"measurement": "FRET signal relative to zero calibrator (quantity not given)", "setting": "[4]", "result": 0.33}, {"measurement": "FRET signal relative to zero calibrator (quantity not given)", "setting": "[5]", "result": 0.83}, {"measurement": "FRET signal relative to zero calibrator (quantity not given)", "setting": "[6]", "result": 0.58}, {"measurement": "FRET signal relative to zero calibrator (quantity not given)", "setting": "[7]", "result": 1}, {"measurement": "FRET signal relative to zero calibrator (quantity not given)", "setting": "[8]", "result": 0.45}, {"measurement": "F/B Mean", "setting": "[9]", "result": 0.666}, {"measurement": "FRET signal relative to zero calibrator (quantity not given)", "setting": "[10]", "result": 1}, {"measurement": "FRET signal relative to zero calibrator (quantity not given)", "setting": "[11]", "result": 0.34}, {"measurement": "FRET signal relative to zero calibrator (quantity not given)", "setting": "[12]", "result": 0.74}, {"measurement": "FRET signal relative to zero calibrator (quantity not given)", "setting": "[13]", "result": 0.58}, {"measurement": "FRET signal relative to zero calibrator (quantity not given)", "setting": "[14]", "result": 1}, {"measurement": "FRET signal relative to zero calibrator (quantity not given)", "setting": "[15]", "result": 0.88}, {"measurement": "FRET signal relative to zero calibrator (quantity not given)", "setting": "[16]", "result": 0.45}, {"measurement": "FRET signal relative to zero calibrator (quantity not given)", "setting": "[17]", "result": 0.59}, {"measurement": "FRET signal relative to zero calibrator (quantity not given)", "setting": "[18]", "result": 0.43}, {"measurement": "FRET signal relative to zero calibrator (quantity not given)", "setting": "[19]", "result": 0.72}, {"measurement": "F/B Mean", "setting": "[20]", "result": 0.905}, {"measurement": "FRET signal relative to zero calibrator (quantity not given)", "setting": "[21]", "result": 0.87}, {"measurement": "FRET signal relative to zero calibrator (quantity not given)", "setting": "[22]", "result": 0.43}, {"measurement": "FRET signal relative to zero calibrator (quantity not given)", "setting": "[23]", "result": 0.33}, {"measurement": "FRET signal relative to zero calibrator (quantity not given)", "setting": "[24]", "result": 0.33}, {"measurement": "FRET signal relative to zero calibrator (quantity not given)", "setting": "[25]", "result": 0.71}, {"measurement": "FRET signal relative to zero calibrator (quantity not given)", "setting": "[26]", "result": 0.56}, {"measurement": "F/B Mean", "setting": "[27]", "result": 0.795}, {"measurement": "FRET signal relative to zero calibrator (quantity not given)", "setting": "[28]", "result": 1}, {"measurement": "F/B Mean", "setting": "[29]", "result": 1}, {"measurement": "F/B Mean", "setting": "[30]", "result": 0.532}]}]}
